Test: soluble on expression in E. coli; label from the status in PepcDB or PDB records
With “MDDVLRRNPLFAALDDEQSAELRASMSEVTLARGDTLFHEGDPGDRLYVVTEGKVKLHRTSPDGRENMLAVVGPSELIGELSLFDPGPRTATGTALTEVKLLALGHGDLQPWLNVRPEVATALLRAVARRLRKTNDAMSDLVFSD” the “soluble on expression in E. coli” value was “soluble”.
In the case of “MQDIPQETLSETTKAEQSAKVDLWEFDLTAIGGERFFFCNEPNEKGEPLTWQGRQYEPYPIQVQDFEMNGKGASPRPNLVVANLFGLVTGMAEDLQSLVGASVVRHQVYSKFLDAVNFSNGNPDADPEQEAVARYNVEQLSELDSSTATIILASPAETDGSVVPGRTMLADSCPWDYRDENCGYDGPPVADEFDKPTSDPKKDKCSHCMKGCEMRNNLVNAGFFASINKLS”, the “soluble on expression in E. coli” value was “not soluble”.
In the case of “MSLKLIGLLMLSYPLQAAPTDLSRYLETQLKEDAREALNSYLQQQGWSASEVDYQVWLSPAVTHLPPCQQAIRLQAGGQYRQPWGRRPYLAECTEPAWQLRARVEVTLMLPVWVTAQEIQKGQTIRTGDLVEKSLDISRLQRGFVPSSESLVGSKSNRNLRMGQLIGELDLQKAWAIREGEGVLIRAGLDGFSATTRGKALANGAIGDGIKVRNISSGKEIQAWVIEKGEVETRFEGHHHHHH”, the “soluble on expression in E. coli” value was “not soluble”.
For “MKSVIIVGAGIGGLCLAQGLAKAGIEFEVWEADAGPQVRGQGYRLRIDAMGQRALRQCLPPDLFELFRASCAVSGPARFVDPQLNPLPGRRPENWRENADAGEAGGDLSADRQVLRDILSHGLAPQIRWGRRARGFERGGDGIVVHCADGSEHGAALVVAADGLHSPLRRQWLPQAEPEAIGALNLYGKTPLDGIDPALLAGPTIVFADGWTLVVEPMRFRAAMSGLAARHAPDCRLSPTDDYVYWAMFGREACLGGSLSGEEDAAGWRRRIEAASGGLHPGLSDLLRRTAPEAVMGRAVRMAAGVPSWPPGRLTVLGDAIHAMSPAGGVGANTALADAAMLAVCLADGDVDRAVARYEADMRGRAERALVATRAGTERLLRRLLEHHHHHH”, the “soluble on expression in E. coli” value was “soluble”.
For “AMARVGVLGAKGKVGATMVRAVAAADDLTLSAELDAGDPLSLLTDGNTEVVIDFTHPDVVMGNLEFLIDNGIHAVVGTTGFTAERFQQVESWLVAKPNTSVLIAPNFAIGAVLSMHFAKQAARFFDSAEVIELHHPHKADAPSGTAARTAKLIAEARKGLPPNPDATSTSLPGARGADVDGIPVHAVRLAGLVAHQEVLFGTEGETLTIRHDSLDRTSFVPGVLLAVRRIAERPGLTVGLEPLLDLH”, the “soluble on expression in E. coli” value was “soluble”.
In the case of “MYGTEQVISGTIIAGPELDPIEGYICVKNGIITEIGEEHTYSANIIAPCFVNAHTHLGDSVCKDPPLGKTSGFRVQKDLDSLVKPPDGLKHRILRDTSYKTLIQYIRKSLLDMIETGTCAFADFREGGVVGLAALNKALEGLNLHSLIFGRPTEPQLPLEVVLAEVRRVLSHSDGLGMSGANDLDMELLQEMTTCTRDRKKLFAIHAGEKNRSDIEKALSLEPDLLIHLTHATKKDLEDVAQTGAPVVVCPRSNFVTGSGMAPIAEMLEAEIRVAAGTDNVMLNSVNMFAEMEFMSKVFSIEDRQVFKICTLNGSFVMGPDSTGSIEKGNKANLMILNGSSNNLAGIKDPISGITKRARPDDILAVLHS”, the “soluble on expression in E. coli” value was “soluble”.
For “MAFYNSIPLIGKHLKSESRAKKYTSEEFKRLEREYRDHIGLPENSSFSSDAFDKLVSSRVDDFRAFPKTNLPGGLLFHDKLKEANTTEGDNIRDVLSKTVLAPTEKFKTAQKNFTESTSTFKELTKLIPSKFRAQDLVGTMKELTDDARKAIIEQQAHEIQMLKEKLDPQKEGQAGNYVSDFKKALGLKDNDEVKKVTEGLIKELEETHKKQLGEFDKSTSDSLNQLHKASASESSEYLFLANLYENNKEMRQTLEKLYAKERQRKGLPPESTTVQVGISENKIDLNGIKLKDIPVIKSITGREIHQQPDGSFAIQMPMINPFYYQDPRQNVKTDMMLIAQAIKASGYDSIEMNCNFPNSEKVAMERGRQAFAACIEAGFPVDKITINVNGKPMKADELFKEHPKTYQDIMSRASKISKDYEDIKAPKTSTAPVNTVVVKQEIAALRTKQQQEERAQTQPVDEQRHGVTPNNLEHHHHHH”, the “soluble on expression in E. coli” value was “not soluble”.
For “MGSDKIHHHHHHMAYIIPSDISAAALAGAHGPELETLAGLKTALSSDYTVYHGVHWSYDYRGQIRFGEADFVVVNQAGEMVVIEQKNGRLEDTAEGLIKVYGNTRKDVQSQVRRSVENIREKMRAASGSPPPSIDYLIYCPDHRLVRLNAVGLDVSRIVSGATPADLAGRIRQILPPGSKGGATENVHAFLRDAFQVVADVHAHVKAHERSYTRLIGGIADIVDSIEMAPLRLRLRGAPGSGKTVVAHRLYERALARGRRPLMVCFNHPLAERLAASVSPGGRVTTWHGLCVNFLAERGLKPNFEDAARNRSFWPDLAELIIAEPVPDAWRFDTLIVDEGQDFEPGWIDILHLFLTDAADIVWLEDPAQELRGIGRNELPGFVGLSVRTNYRTPQSIARFVKRALGADFVAANDLPGLGVGVSTYGLEDEQAVHLSRIVPALVRQGFAPDQIVIVTLKGATTSVLSQMTRIGTHEVSHFTGAYGDDGRQVRSRGLIRFESVQRFKGQQAPAVIVVDVNPASDPNKAERHLRQLFSAFTRATIRLEILAQKDNPMTARLLGSL”, the “soluble on expression in E. coli” value was “not soluble”.
For “MEEVINYRSDLFRLSDNLETLHIEEKFGIKCDLTCKIEENMTTFEFQFDLRDFKNNGFKQLTAEITIRPDPENPIFELIHRKLDILDIDEHRVNFSVENKNTQSLAETRAILELILTPIREKFSYREMFMPSQKTDAILMIGGEKLHVNKAFLSFHSDFFHELFSASSTESEIPEIPIRDVSAEDMGLLLSTIYPDLVFPTDKTAAKLLTLANRFQMRAVTAQVEHHLLWHSDIEIEKLILMANTFGMKDLLKECTCDGGNKTPGEVPISVQ”, the “soluble on expression in E. coli” value was “not soluble”.
With “MGSDKIHHHHHHMGSSPARMSSGAPAPRVEVECLKAYSAPLEGRRGLLRLDFNENTIGPSPRVLEALRAIPADQIAVYPEYDGLREAVVANLSNRDQGRPGLTQPLSPSQIGLFNGVDAAIHAIFHAYGDRGDRLLTTSPTFGYYTPCAQMQGMKILAIPYEGSDFRFPLQVIRTLLQQKRPRLLLLCNPNNPTGTRLAPEQILELAVAAPETLVVVDELYEAFTGDSVLPQADFSVTPNLLVLRSLAKTAGLAGLRMGFAIGSADVIDRVSRVTGPYDINSFAVTAAFAALDDQAYVDAYVADVLKARDWISARLDASGVPYHLDGGNYLLIWPQQQPTEVEAALRKRGILVRLMTGKPLIDGSLRVSIGTIEQMQQFWQAFATVESLAA” the “soluble on expression in E. coli” value was “not soluble”.
In the case of “MALKGEGLQGLLGRGEARLGVGGEEAFQVKGGLLAEPRHGRMGSPVGVQGDLARGVGEGVLPGEHPVEDDPGGVDVSLGARGQAPDELGGQVGGGAQEKGLLETLLGGAREVKVQEAGLPGVHQDVLGLHVPVDQALFVHVGEGEEELVEDPHRLGKRGAFPHPAAELLPRGVGQEEGGAFLQVQGLEDGVEVGVGEPSPHPKLPVPAGAGLRGEELEGVGGAEGVKGQVDPGQGPAGQGPHHPVAAREGFAHQAHRPHYTLRKPGYHGPMRGLVLSGGGARGFAHIGALEVFVEAGLDFEVVAGASMGAIVGALFAAGRSPQEILEIARNTPWLGILGFSFREALFSRGRLRRYLAEHLPQDFADLKRRLVVTAVEVRSGRVVYLFQGDLVSAVLASAAHPLLLRPVRREGLLLFDGGVLDNLPVDAARFLGAEEVWAVDVTPERSVEKPPEGVLGLALRAVDLMQHHLTASRMALYAPEVYLRPELGEVAVQDFLRLEEAVEAGRKAAKRFLESRVGEV”, the “soluble on expression in E. coli” value was “soluble”.
For “MKPRPQSDAVDNEGPTPLSKGRRHLAMRLDDAWLGFQTRLAIRRGRVETVIPYTGYGSTSWVRVLARIVRSDPRDAAGHTNPLQESMRGWRNFTSAPVAHASVQVTIDGTVHDVVADRGGVVDARIPVALDAGWHTITLRSGESETVEAPVEIVADDAVFGVVSDIDDTVMVTALPRPFLAAWNTFVLNEHARTPTPGMAVLYERIARTAPSAPVLYLSTGAWNVAPTLSRFLSRNLYPAGPKLLTDWGPTPDRWFRSGQEHKRTSLERLAEEFPNIKWLLVGDDGQHDEAIYSEFAQRHPASVRAIAIRQLSAGEAVLAGGRSKSGGQPTPGVPWIYAPDGAGMSAQLEELGIIRLEHHHHHH”, the “soluble on expression in E. coli” value was “not soluble”.
